Experimental data taken from the supplement of paper PMC9112550, “Optimization of the antimicrobial peptide Bac7 by deep mutational scanning” (BMC Biology, 2022).

tested on: Escherichia coli TOP10; test: shrunken log2 fold change of peptide-encoding DNA abundance (4.5 h post-induction vs induction); higher = less antimicrobial activity (less host growth inhibition); settings: time post-induction: 4.5 h; library: site-saturation at positions 5, 18, 19, 20
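Also: peptides expressed intracellularly from a pBAD plasmid library in pooled LB shake-flask culture, induced with 0.3% L-arabinose, DNA abundance read by NGS, three biological replicates, DESeq2 with apeglm shrinkage.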

In order of rising “shrunken log2 fold change” value:
1. RRIRCRPPRLPRPRPRPENIPRP  -1.32
2. RRIRARPPRLPRPRPRPYMMPRP  -1.22
3. RRIRCRPPRLPRPRPRPFTMPRP  -1.13
4. RRIRCRPPRLPRPRPRPFSYPRP  -0.947
5. RRIRCRPPRLPRPRPRPFKMPRP  -0.854
6. RRIRARPPRLPRPRPRPYNNPRP  -0.817
7. RRIRCRPPRLPRPRPRPFEHPRP  -0.792
8. RRIRCRPPRLPRPRPRPFIMPRP  -0.765
9. RRIRARPPRLPRPRPRPYLLPRP  -0.76
10. RRIRCRPPRLPRPRPRPFIWPRP  -0.717
11. RRIRCRPPRLPRPRPRPCCYPRP  -0.696
12. RRIRCRPPRLPRPRPRPCHDPRP  -0.69
13. RRIRCRPPRLPRPRPRPFISPRP  -0.689
14. RRIRCRPPRLPRPRPRPCFLPRP  -0.622
15. RRIRCRPPRLPRPRPRPCYWPRP  -0.595
16. RRIRCRPPRLPRPRPRPFMYPRP  -0.592
17. RRIRCRPPRLPRPRPRPGNHPRP  -0.587
18. RRIRCRPPRLPRPRPRPGDHPRP  -0.583
19. RRIRCRPPRLPRPRPRPCISPRP  -0.582
20. RRIRARPPRLPRPRPRPYWVPRP  -0.57
21. RRIRARPPRLPRPRPRPYWIPRP  -0.556
22. RRIRCRPPRLPRPRPRPCFDPRP  -0.526
23. RRIRARPPRLPRPRPRPYNWPRP  -0.481
24. RRIRCRPPRLPRPRPRPFSTPRP  -0.472
25. RRIRCRPPRLPRPRPRPGMFPRP  -0.462
26. RRIRCRPPRLPRPRPRPDRKPRP  -0.458
27. RRIRCRPPRLPRPRPRPCRYPRP  -0.446
28. RRIRCRPPRLPRPRPRPFHAPRP  -0.44
29. RRIRCRPPRLPRPRPRPDVIPRP  -0.405
30. RRIRCRPPRLPRPRPRPCCMPRP  -0.392
31. RRIRCRPPRLPRPRPRPCRCPRP  -0.389
32. RRIRARPPRLPRPRPRPYNPPRP  -0.388
33. RRIRCRPPRLPRPRPRPFECPRP  -0.365
34. RRIRCRPPRLPRPRPRPDWHPRP  -0.358
35. RRIRCRPPRLPRPRPRPCDRPRP  -0.351
36. RRIRCRPPRLPRPRPRPFKEPRP  -0.342
37. RRIRCRPPRLPRPRPRPDMSPRP  -0.329
38. RRIRCRPPRLPRPRPRPFKKPRP  -0.319
39. RRIRCRPPRLPRPRPRPGAYPRP  -0.319
40. RRIRCRPPRLPRPRPRPFWTPRP  -0.317
41. RRIRARPPRLPRPRPRPYLYPRP  -0.312
42. RRIRCRPPRLPRPRPRPCNTPRP  -0.306
43. RRIRCRPPRLPRPRPRPCDMPRP  -0.277
44. RRIRCRPPRLPRPRPRPDLTPRP  -0.275
45. RRIRCRPPRLPRPRPRPFVFPRP  -0.26
46. RRIRCRPPRLPRPRPRPEYVPRP  -0.244
47. RRIRCRPPRLPRPRPRPASHPRP  -0.241
48. RRIRCRPPRLPRPRPRPDHNPRP  -0.239
49. RRIRCRPPRLPRPRPRPFRRPRP  -0.237
50. RRIRCRPPRLPRPRPRPGITPRP  -0.232
51. RRIRCRPPRLPRPRPRPEYHPRP  -0.222
52. RRIRARPPRLPRPRPRPYQLPRP  -0.215
53. RRIRARPPRLPRPRPRPYTLPRP  -0.213
54. RRIRCRPPRLPRPRPRPAGTPRP  -0.202
55. RRIRCRPPRLPRPRPRPFFMPRP  -0.201
56. RRIRCRPPRLPRPRPRPFNTPRP  -0.2
57. RRIRCRPPRLPRPRPRPDCRPRP  -0.195
58. RRIRCRPPRLPRPRPRPFTWPRP  -0.188
59. RRIRCRPPRLPRPRPRPDMVPRP  -0.184
60. RRIRARPPRLPRPRPRPYRCPRP  -0.174
61. RRIRCRPPRLPRPRPRPAIYPRP  -0.17
62. RRIRCRPPRLPRPRPRPAQLPRP  -0.169
63. RRIRCRPPRLPRPRPRPFAFPRP  -0.169
64. RRIRCRPPRLPRPRPRPDWIPRP  -0.159
65. RRIRCRPPRLPRPRPRPDMFPRP  -0.148
66. RRIRCRPPRLPRPRPRPDHEPRP  -0.144
67. RRIRCRPPRLPRPRPRPEYIPRP  -0.144
68. RRIRCRPPRLPRPRPRPDRMPRP  -0.139
69. RRIRCRPPRLPRPRPRPEYTPRP  -0.139
70. RRIRCRPPRLPRPRPRPADGPRP  -0.129
71. RRIRCRPPRLPRPRPRPEVPPRP  -0.119
72. RRIRCRPPRLPRPRPRPFLWPRP  -0.119
73. RRIRCRPPRLPRPRPRPAGQPRP  -0.109
74. RRIRCRPPRLPRPRPRPGKQPRP  -0.106
75. RRIRCRPPRLPRPRPRPELLPRP  -0.0954
76. RRIRCRPPRLPRPRPRPDDGPRP  -0.0952
77. RRIRCRPPRLPRPRPRPAVEPRP  -0.0939
78. RRIRCRPPRLPRPRPRPCMDPRP  -0.09
79. RRIRCRPPRLPRPRPRPGDYPRP  -0.081
80. RRIRCRPPRLPRPRPRPCPSPRP  -0.0705
81. RRIRCRPPRLPRPRPRPCKSPRP  -0.0591
82. RRIRCRPPRLPRPRPRPDPIPRP  -0.0573
83. RRIRCRPPRLPRPRPRPASQPRP  -0.0515
84. RRIRCRPPRLPRPRPRPGDTPRP  -0.0505
85. RRIRCRPPRLPRPRPRPDLCPRP  -0.047
86. RRIRCRPPRLPRPRPRPEGSPRP  -0.043
87. RRIRCRPPRLPRPRPRPDPEPRP  -0.0407
88. RRIRARPPRLPRPRPRPYRTPRP  -0.0383
89. RRIRCRPPRLPRPRPRPEQEPRP  -0.0332
90. RRIRCRPPRLPRPRPRPDGKPRP  -0.0306
91. RRIRCRPPRLPRPRPRPETGPRP  -0.0271
92. RRIRCRPPRLPRPRPRPEILPRP  -0.0141
93. RRIRARPPRLPRPRPRPYPDPRP  -0.0126
94. RRIRCRPPRLPRPRPRPCCKPRP  -0.0101
95. RRIRARPPRLPRPRPRPYNLPRP  -0.00894
96. RRIRCRPPRLPRPRPRPGCHPRP  -0.00885
97. RRIRCRPPRLPRPRPRPCHVPRP  -0.00144
98. RRIRCRPPRLPRPRPRPCAPPRP  -0.00137
99. RRIRCRPPRLPRPRPRPGCQPRP  0.00667
100. RRIRCRPPRLPRPRPRPDRYPRP  0.00956
101. RRIRCRPPRLPRPRPRPEWKPRP  0.0169
102. RRIRCRPPRLPRPRPRPAQTPRP  0.0194
103. RRIRCRPPRLPRPRPRPAKDPRP  0.021
104. RRIRCRPPRLPRPRPRPFYWPRP  0.0228
105. RRIRCRPPRLPRPRPRPEEFPRP  0.0238
106. RRIRCRPPRLPRPRPRPEFKPRP  0.0244
107. RRIRCRPPRLPRPRPRPATKPRP  0.0383
108. RRIRARPPRLPRPRPRPYWQPRP  0.046
109. RRIRCRPPRLPRPRPRPEVDPRP  0.0462
110. RRIRCRPPRLPRPRPRPCRQPRP  0.0584
111. RRIRCRPPRLPRPRPRPDRWPRP  0.0613
112. RRIRCRPPRLPRPRPRPECIPRP  0.0623
113. RRIRCRPPRLPRPRPRPCQRPRP  0.0663
114. RRIRCRPPRLPRPRPRPEKKPRP  0.0741
115. RRIRCRPPRLPRPRPRPFFFPRP  0.101
116. RRIRCRPPRLPRPRPRPDGTPRP  0.105
117. RRIRCRPPRLPRPRPRPDPGPRP  0.112
118. RRIRCRPPRLPRPRPRPDAGPRP  0.122
119. RRIRCRPPRLPRPRPRPASSPRP  0.124
120. RRIRCRPPRLPRPRPRPALPPRP  0.143
121. RRIRCRPPRLPRPRPRPAKAPRP  0.162
122. RRIRCRPPRLPRPRPRPASVPRP  0.176
123. RRIRCRPPRLPRPRPRPDRPPRP  0.19
124. RRIRCRPPRLPRPRPRPAWGPRP  0.193
125. RRIRCRPPRLPRPRPRPACWPRP  0.219
126. RRIRCRPPRLPRPRPRPASWPRP  0.219
127. RRIRCRPPRLPRPRPRPFYTPRP  0.235
128. RRIRCRPPRLPRPRPRPESEPRP  0.237
129. RRIRCRPPRLPRPRPRPGKRPRP  0.244
130. RRIRCRPPRLPRPRPRPEELPRP  0.249
131. RRIRCRPPRLPRPRPRPDQAPRP  0.288
132. RRIRCRPPRLPRPRPRPAYWPRP  0.293
133. RRIRCRPPRLPRPRPRPAQQPRP  0.342
134. RRIRCRPPRLPRPRPRPAHRPRP  0.392
135. RRIRCRPPRLPRPRPRPCFFPRP  0.392
136. RRIRCRPPRLPRPRPRPARLPRP  0.395
137. RRIRCRPPRLPRPRPRPELAPRP  0.403
138. RRIRCRPPRLPRPRPRPDPAPRP  0.412
139. RRIRCRPPRLPRPRPRPEPLPRP  0.438
140. RRIRCRPPRLPRPRPRPALAPRP  0.475
141. RRIRCRPPRLPRPRPRPDPPPRP  0.52
142. RRIRCRPPRLPRPRPRPAPNPRP  0.526
143. RRIRCRPPRLPRPRPRPEMQPRP  0.526
144. RRIRCRPPRLPRPRPRPEPRPRP  0.61
145. RRIRCRPPRLPRPRPRPEPEPRP  0.706
146. RRIRCRPPRLPRPRPRPELWPRP  0.732
147. RRIRCRPPRLPRPRPRPDPRPRP  0.83
148. RRIRCRPPRLPRPRPRPAWPPRP  0.895
149. RRIRCRPPRLPRPRPRPAPKPRP  1.02
150. RRIRCRPPRLPRPRPRPDYGPRP  2.76
